For data set [1], the system named is Saccharomyces cerevisiae. Kind of data set: protein stability index of tFT-peptide fusion in wild type (PSI (0-1 scale)); higher = more stable (slower turnover). As to conditions: genetic background: wild type.
In data set [2] the test system is Saccharomyces cerevisiae. Kind of data set: protein stability index of tFT-peptide fusion in deletion strain of DOA10 (PSI (0-1 scale)); higher = more stable (slower turnover). On the procedure:
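MPS profiling in S. cerevisiae of two library types built from selected 12-aa C-degron peptides (IN1, IN2, LN1, LN3, VN2, R1-R5, W1-W3, Atg1 and Rpa12 C-termini): saturation mutagenesis libraries and C-terminal +1 capping libraries (13 aa). Each peptide is fused to the C-terminus of a sfGFP-mCherry timer, after a GGGS linker. Cells are FACS-sorted into 8 mCherry/sfGFP bins and sequenced. PSI runs from 0 (unstable) to 1 (stable), measured once in wild type and in the das1Δ or doa10Δ background.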

Data set [3] has as its system Saccharomyces cerevisiae. Kind of data set: protein stability index of tFT-peptide fusion in deletion strain of DAS1 (PSI (0-1 scale)); higher = more stable (slower turnover).
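For protein stability index of tFT-peptide fusion in deletion strain of DAS1 in this document: PSI is a weighted mean of each variant's read distribution over the sorted stability bins, computed only for variants having over 10 reads in total.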
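For protein stability index of tFT-peptide fusion in deletion strain of DOA10 in this document: PSI per variant is the weighted mean of its sequencing read distribution over the sorted stability bins, counting only variants with over 10 reads summed across bins.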
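For protein stability index of tFT-peptide fusion in wild type in this document: PSI derived as read-weighted mean over the 8 sorting bins, only variants exceeding 10 total reads kept, mCherry placed adjacent to the peptide and sfGFP distal.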

As for AETLPMCPLLLR, the protein stability index in data set [1] stood at 0.55; in data set [2] it was 0.697.

As to AHTLPMCPLLLR, the protein stability index in data set [1] stood at 0.346; in data set [2], 0.664.

In the case of AIILPMCPLLLR, the protein stability index was found to be 0.277 in data set [1] and 0.617 in data set [2].

As to AIPLPMCPLLLR, the protein stability index in data set [1] turned out to be 0.28; in data set [2] it was 0.653.

Take AITLAMCPLLLR: the values for the protein stability index in data set [1] and in data set [2] were 0.418 and 0.65, respectively.

As for AITLKMCPLLLR, the protein stability index in data set [1] came to 0.296; in data set [2], 0.624.

Regarding AITLLMCPLLLR, the figures for the protein stability index in data set [1] and in data set [2] were 0.37 and 0.629, respectively.

With AITLPLCPLLLR, the protein stability index was 0.19 in data set [1] and 0.647 in data set [2].

For the sequence AITLPMCGLLLR, the results for the protein stability index in data set [1] and in data set [2] were 0.243 and 0.63, respectively.

AITLPMCILLLR: the values for the protein stability index in data set [1] and in data set [2] were 0.091 and 0.603, respectively.

As for AITLPMCMLLLR, the protein stability index in data set [1] came to 0.133; in data set [2], 0.651.

Regarding AITLPMCPDLLR, the protein stability index is 0.669 in data set [1] and 0.677 in data set [2].

For the sequence AITLPMCPLLDR, the protein stability index in data set [1] was found to be 0.655; in data set [2], 0.7.

For the sequence AITLPMCPLLFR, the protein stability index in data set [1] was determined as 0.27; in data set [2] it was 0.669.

Turning to AITLPMCPLLLA, the results for the protein stability index in data set [1] and in data set [2] were 0.269 and 0.313, respectively.

On to AITLPMCPLLLE, for which the protein stability index is 0.618 in data set [1] and 0.652 in data set [2].

On to AITLPMCPLLLG, for which the protein stability index was 0.509 in data set [1] and 0.544 in data set [2].

In the case of AITLPMCPLLLRP, the figures for the protein stability index in data set [1] and in data set [2] were 0.281 and 0.636, respectively.

Consider AITLPMCPLLLRW, for which the protein stability index was determined as 0.0872 in data set [1] and 0.621 in data set [2].

Turning to AITLPMCPLNLR, the protein stability index is 0.645 in data set [1] and 0.673 in data set [2].

Regarding AITLPMCPLSLR, the values for the protein stability index in data set [1] and in data set [2] were 0.596 and 0.665, respectively.

Regarding AITLPMCPLYLR, the protein stability index in data set [1] was 0.135; in data set [2] it was 0.675.

On to AITLPMCPVLLR, for which the results for the protein stability index in data set [1] and in data set [2] were 0.322 and 0.623, respectively.

For AITLPMCPWLLR, the protein stability index in data set [1] is 0.652; in data set [2] it was 0.667.

In the case of AITLPMMPLLLR, the protein stability index was 0.187 in data set [1] and 0.639 in data set [2].

As to AITLPMPPLLLR, the figures for the protein stability index in data set [1] and in data set [2] were 0.257 and 0.682, respectively.

Regarding AITLPMSPLLLR, the figures for the protein stability index in data set [1] and in data set [2] were 0.276 and 0.673, respectively.

Turning to ALVSLPILLFFR, the protein stability index turned out to be 0.0758 in data set [1] and 0.653 in data set [2].

With ARTLPMCPLLLR, the protein stability index was found to be 0.311 in data set [1] and 0.669 in data set [2].

With ASLRVLLPLYFR, the protein stability index in data set [1] turned out to be 0.285; in data set [2], 0.666.

For CDVSLPILLFFR, the figures for the protein stability index in data set [1] and in data set [2] were 0.0512 and 0.648, respectively.

Take CFVSLPILLFFR: the values for the protein stability index in data set [1] and in data set [2] were 0.0595 and 0.579, respectively.

For CLKSLPILLFFR, the results for the protein stability index in data set [1] and in data set [2] were 0.083 and 0.618, respectively.

Regarding CLLSLPILLFFR, the protein stability index in data set [1] is 0.0527; in data set [2] it was 0.571.

In the case of CLVALPILLFFR, the protein stability index worked out at 0.0608 in data set [1] and 0.512 in data set [2].

As to CLVGLPILLFFR, the results for the protein stability index in data set [1] and in data set [2] were 0.0666 and 0.589, respectively.

CLVPLPILLFFR: the protein stability index in data set [1] turned out to be 0.0703; in data set [2], 0.57.

Regarding CLVSLAILLFFR, the protein stability index in data set [1] was found to be 0.248; in data set [2], 0.351.

CLVSLEILLFFR: the values for the protein stability index in data set [1] and in data set [2] were 0.211 and 0.262, respectively.

As to CLVSLIILLFFR, the protein stability index in data set [1] is 0.298; in data set [2] it was 0.363.

On to CLVSLPILLEFR, for which the protein stability index in data set [1] was determined as 0.518; in data set [2], 0.638.

On to CLVSLPILLFFE, for which the protein stability index was 0.454 in data set [1] and 0.57 in data set [2].

Consider CLVSLPILLFFG, for which the protein stability index in data set [1] was 0.447; in data set [2], 0.52.

For the sequence CLVSLPILLFFH, the figures for the protein stability index in data set [1] and in data set [2] were 0.204 and 0.474, respectively.

In the case of CLVSLPILLFFI, the protein stability index in data set [1] is 0.197; in data set [2], 0.436.

As for CLVSLPILLFFRT, the protein stability index in data set [1] was 0.0656; in data set [2] it was 0.516.

Regarding CLVSLPILLFFRY, the protein stability index worked out at 0.0612 in data set [1] and 0.483 in data set [2].

As to CLVSLPILLFGR, the protein stability index in data set [1] was 0.492; in data set [2], 0.523.

Regarding CLVSLPILLFTR, the protein stability index in data set [1] stood at 0.314; in data set [2], 0.477.

As to CLVSLPILLTFR, the protein stability index turned out to be 0.0802 in data set [1] and 0.627 in data set [2].

Take CLVSLPINLFFR: the protein stability index in data set [1] came out at 0.0948; in data set [2] it was 0.682.

Regarding CLVSLPIQLFFR, the protein stability index in data set [1] turned out to be 0.0792; in data set [2], 0.658.

Regarding CLVSLPITLFFR, the protein stability index in data set [1] was found to be 0.104; in data set [2], 0.65.

CLVSLRILLFFR: the protein stability index in data set [1] is 0.152; in data set [2], 0.282.

For the sequence CLVSTPILLFFR, the values for the protein stability index in data set [1] and in data set [2] were 0.132 and 0.623, respectively.

For CLVWLPILLFFR, the protein stability index in data set [1] stood at 0.0521; in data set [2] it was 0.359.

CRVSLPILLFFR: the results for the protein stability index in data set [1] and in data set [2] were 0.0571 and 0.62, respectively.

As to CSVSLPILLFFR, the figures for the protein stability index in data set [1] and in data set [2] were 0.0485 and 0.617, respectively.

For CVVSLPILLFFR, the results for the protein stability index in data set [1] and in data set [2] were 0.0506 and 0.589, respectively.

As to EVTRLDAIYFRI, the protein stability index in data set [1] was 0.435; in data set [2] it was 0.701.

In the case of FITLPMCPLLLR, the protein stability index was found to be 0.333 in data set [1] and 0.61 in data set [2].

Regarding FLVSLPILLFFR, the protein stability index in data set [1] is 0.0831; in data set [2], 0.539.

On to VRGVVGGWRLVG, for which the protein stability index stood at 0.679 in data set [3] and 0.176 in data set [1].

For the sequence VRLAVGGWRLVG, the protein stability index in data set [3] was 0.679; in data set [1], 0.131.

With VTGAVGGWRLVG, the protein stability index was determined as 0.672 in data set [3] and 0.141 in data set [1].

As for VVVYLSCVACIN, the protein stability index in data set [3] is 0.0435; in data set [1], 0.0234.

YSMRWTFRYWVN: the protein stability index in data set [3] came out at 0.495; in data set [1], 0.042.

These data come from the supplement of paper PMC10724198.
